Test results as given in paper PMC3702667.

Experiments:
[1] = target: RECQL5 KIX domain (RECQL5_(515–620)) (human) (UniProt O94762); experiment: SAXS
[2] = target: RECQL5 KIX domain (RECQL5_(515–620)) (human) (UniProt O94762); experiment: crystal structure
[3] = target: Fluorescently labeled RECQL5_(1–620) (human) (UniProt O94762); experiment: native gel or EMSA
Chain of Fluorescently labeled RECQL5_(1–620) (human) (O94762 1-620): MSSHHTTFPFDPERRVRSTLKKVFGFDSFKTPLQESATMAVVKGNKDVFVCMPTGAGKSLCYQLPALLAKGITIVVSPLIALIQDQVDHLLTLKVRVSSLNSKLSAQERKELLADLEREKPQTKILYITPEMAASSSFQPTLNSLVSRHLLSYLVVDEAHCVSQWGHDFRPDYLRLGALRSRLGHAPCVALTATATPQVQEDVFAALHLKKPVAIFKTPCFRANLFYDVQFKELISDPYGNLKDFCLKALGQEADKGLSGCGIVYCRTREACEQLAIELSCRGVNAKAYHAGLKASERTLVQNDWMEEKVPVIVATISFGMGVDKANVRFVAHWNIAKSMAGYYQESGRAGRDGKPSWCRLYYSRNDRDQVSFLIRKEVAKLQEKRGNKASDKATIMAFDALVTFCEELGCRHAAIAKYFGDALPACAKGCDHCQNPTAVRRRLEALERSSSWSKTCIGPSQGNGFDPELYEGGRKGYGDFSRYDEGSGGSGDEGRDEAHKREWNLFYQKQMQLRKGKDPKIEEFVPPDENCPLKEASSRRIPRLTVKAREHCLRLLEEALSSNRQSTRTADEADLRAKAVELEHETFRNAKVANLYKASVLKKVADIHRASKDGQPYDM

| Substance | stoichiometry N [1] | stoichiometry N [2] | Kd [3] |
| --- | --- | --- | --- |
| RECQL5 KIX domain (RECQL5_(515–620)) (from UniProt O94762 515-620) (domain or fragment) | 2 | 2 |  |
| human RNA polymerase II (from UniProt P24928;P30876) (complex) |  |  | 40 nM |
